The text below walks through data of the Immune Epitope Database (IEDB).

In test [1] the target is HLA-A*24:02. In words: IEDB peptide-MHC binding, purified MHC/competitive/fluorescence; ≥ and ≤ were set here for values at or beyond the usual limits of such assays.
Another test concerns the target HLA-B*51:01. As to the kind of experiment: IEDB peptide-MHC binding, purified MHC/competitive/radioactivity; filed as Kd, often an IC50 or EC50 that approximates it; ≥ and ≤ were set here for values at or beyond the usual limits of such assays.
The target in a further test is HLA-B*35:01. The description is as above.
The next test has as its target HLA-A*30:02. The test is described as above.
In the next test the target is HLA-B*53:01. The test is described as above.
The next test concerns the target HLA-A*11:01. As to the kind of experiment: IEDB peptide-MHC binding, purified MHC/direct/fluorescence; filed as Kd, often an IC50 or EC50 that approximates it; ≥ and ≤ were set here for values at or beyond the usual limits of such assays.
A further test addresses HLA-A*30:01. As to the kind of experiment: IEDB peptide-MHC binding, purified MHC/competitive/radioactivity; filed as Kd, often an IC50 or EC50 that approximates it; ≥ and ≤ were set here for values at or beyond the usual limits of such assays.
A further test concerns the target HLA-B*40:01. In words: IEDB peptide-MHC binding, purified MHC/direct/fluorescence; filed as Kd, often an IC50 or EC50 that approximates it; ≥ and ≤ were set here for values at or beyond the usual limits of such assays.
The target in test [2] is HLA-A*02:01. As to the kind of experiment: IEDB peptide-MHC binding, purified MHC/competitive/fluorescence; ≥ and ≤ were set here for values at or beyond the usual limits of such assays. To be noted: source organism: Sudan ebolavirus.
Another test deals with HLA-A*01:01. As to the kind of experiment: IEDB peptide-MHC binding, purified MHC/competitive/radioactivity; filed as Kd, often an IC50 or EC50 that approximates it; ≥ and ≤ were set here for values at or beyond the usual limits of such assays.
The target in another test is HLA-B*58:01. As to the kind of experiment: IEDB peptide-MHC binding, purified MHC/direct/fluorescence; filed as Kd, often an IC50 or EC50 that approximates it; ≥ and ≤ were set here for values at or beyond the usual limits of such assays.
Another test addresses HLA-B*15:01. Described as above.
For a further test, the target named is HLA-A*68:01. As to the kind of experiment: IEDB peptide-MHC binding, purified MHC/competitive/radioactivity; filed as Kd, often an IC50 or EC50 that approximates it; ≥ and ≤ were set here for values at or beyond the usual limits of such assays. To be noted: source organism: Dengue virus 2 Jamaica/1409/1983.
The target in another test is HLA-A*33:01. The description is as above. The settings on record: source organism: Dengue virus 2 Jamaica/1409/1983.
In test [3] the target is HLA-A*24:02. The test is described as above.
In the next test the target is HLA-A*23:01. Described as above.
Another test concerns the target HLA-A*26:01. Described as above. To be noted: source organism: Dengue virus 3 Martinique/1243/1999.
The target in test [4] is HLA-A*02:01. As to the kind of experiment: IEDB peptide-MHC binding, purified MHC/competitive/fluorescence; filed as Kd, often an IC50 or EC50 that approximates it; ≥ and ≤ were set here for values at or beyond the usual limits of such assays. To be noted: source organism: Trichodesmium erythraeum IMS101.
Setting [5] is: source organism: Zaire ebolavirus.
The mark [6] stands for this setting: source organism: Dengue virus 2 Jamaica/1409/1983.
The mark [7] stands for this setting: source organism: Dengue virus 3 Martinique/1243/1999.
[8] abbreviates: source organism: Vaccinia virus WR.
[9] abbreviates: source organism: Dengue virus 4 Philippines/H241/1956.
Where [10] appears, read: source organism: Sudan ebolavirus.
The mark [11] stands for this setting: source organism: Dengue virus 1 Brazil/97-11/1997.
Where [12] appears, read: source organism: Haemophilus influenzae.
The mark [13] stands for this setting: source organism: Mammarenavirus juninense.
[14] abbreviates: source organism: Dengue virus 1 Singapore/S275/1990.

GIVRQRVIP came in with an IC50 with HLA-A*24:02 [1] (setting [5]) of no less than 151000 nM.

FPVSIPITA: the dissociation constant (Kd) was 3720 nM with HLA-B*51:01 (setting [6]) and 1.7 nM with HLA-B*35:01 (setting [6]).

Consider FAGPVSQHNY, for which the values for the Kd with HLA-A*30:02 (setting [6]), in the test with HLA-B*53:01 (setting [6]) and in the test with HLA-B*35:01 (setting [6]) were 11.6 nM, 435 nM and 38.4 nM, respectively.

As to AYAQMWSLMY, the Kd in the test with HLA-A*30:02 (setting [7]) is 169 nM.

With TPKGPKVKY, in the test with HLA-A*11:01 (source organism: SARS-CoV1), the Kd was no less than 46100 nM.

Consider WFFDLPLPWT, for which the Kd with HLA-A*30:01 (setting [7]) worked out at 16300 nM.

On to KQRLTNLEK, for which the Kd with HLA-A*30:01 (setting [8]) stood at 0.951 nM.

On to SEFCDMLRL, for which, in the test with HLA-B*40:01 (source organism: Mammarenavirus guanaritoense), the Kd amounted to 84.2 nM.

Turning to MPTVIEELEK, the Kd is 5380 nM with HLA-B*53:01 (setting [9]) and 2620 nM with HLA-B*35:01 (setting [9]).

For VPLLAMGCY, the Kd in the test with HLA-B*35:01 (setting [9]) turned out to be 112 nM.

Turning to DQNYVCKHTY, in the test with HLA-A*30:02 (setting [7]), the Kd came to 8020 nM.

Take AFFLYDRLA: the figures for the IC50 with HLA-A*24:02 [1] (setting [10]) and with HLA-A*02:01 [2] were no less than 151000 nM and 35800 nM, respectively.

Turning to TPKGAVMDI, in the test with HLA-B*51:01 (setting [9]), the Kd amounted to 4220 nM.

Turning to NYEAGEWAE, the IC50 with HLA-A*24:02 [1] (setting [5]) came out at 13400 nM.

In the test with HLA-A*24:02 [1] (setting [5]), DSFLLMLCL showed an IC50 of no less than 313000 nM.

Regarding YTDFPCQYV, the Kd with HLA-A*01:01 (source organism: Homo sapiens) came to 1.8 nM.

As to LPLPWTSGAS, the Kd came to 10600 nM with HLA-B*51:01 (setting [11]) and 938 nM in the test with HLA-B*35:01 (setting [11]).

On to AWNVWEVEDY, for which the Kd in the test with HLA-A*30:02 (setting [7]) was no less than 69700 nM.

In the case of KVKWLQNSV, the Kd with HLA-A*30:01 (source organism: Vaccinia virus Copenhagen) was found to be 0.497 nM.

As for GNRGSTSFK, the Kd with HLA-A*30:01 (setting [8]) was 2.04 nM.

For the sequence SQKHFDTWW, the Kd with HLA-B*58:01 (setting [12]) was 3040 nM; in the test with HLA-B*15:01 (setting [12]), 473 nM.

As to AGVLWDVPSP, in the test with HLA-A*30:01 (setting [6]), the Kd turned out to be 11900 nM.

Regarding KLIADSIDF, the Kd with HLA-B*58:01 (setting [13]) was 1620 nM; with HLA-B*15:01 (setting [13]), 67.5 nM.

In the test with HLA-A*24:02 [1] (setting [10]), RRWGGTCRI had an IC50 of 708 nM.

As for SYNDYFNVL, in the test with HLA-A*24:02 [1] (source organism: Vaccinia virus), the IC50 was 98.3 nM.

For IDNNTFVRL, the IC50 was 67900 nM with HLA-A*24:02 [1] (setting [10]) and no less than 149000 nM with HLA-A*02:01 [2].

Regarding EVKSCHWPK, the Kd in the test with HLA-A*68:01 came out at 70.6 nM; with HLA-A*30:01 (setting [6]), 166 nM; with HLA-A*33:01 it was 7.23 nM.

Turning to WFFDLPLPW, the Kd is 62.2 nM in the test with HLA-A*24:02 [3] (setting [7]) and 24 nM with HLA-A*23:01 (setting [7]).

ETENILTVLL: the Kd with HLA-A*01:01 (setting [7]) is 3840 nM; with HLA-A*26:01, 16200 nM.

For the sequence FEKEGYSLV, the Kd with HLA-B*40:01 (source organism: Influenza A virus (A/Netherlands/458/98 (H3N2))) stood at 118 nM.

For the sequence CPDDQRAWNI, the figures for the Kd with HLA-B*53:01 (setting [14]) and with HLA-B*51:01 (setting [14]) were 120 nM and 18000 nM, respectively.

As for ETFLQSPPI, the IC50 in the test with HLA-A*24:02 [1] (setting [10]) is 13900 nM; in the test with HLA-A*02:01 [2], no less than 143000 nM.

Consider GVDFQESAD, for which the IC50 in the test with HLA-A*24:02 [1] (setting [5]) is no less than 117000 nM.

With YWVSNASGNI, the Kd with HLA-A*23:01 (setting [6]) came out at 1330 nM.

Consider TYQNKVVKV, for which the dissociation constant Kd in the test with HLA-A*23:01 (setting [7]) came to 6520 nM.

For the sequence YTRVLKPSV, the Kd in the test with HLA-A*30:01 (setting [8]) was 738 nM.

In the test with HLA-A*11:01 (source organism: Yellow fever virus), LTLKGTSYK showed a Kd of 5.6 nM.

As for NPTVDGITV, the Kd in the test with HLA-B*51:01 (setting [6]) stood at 6300 nM.

HYWTAQEQH gave an IC50 with HLA-A*24:02 [1] (setting [10]) of 51100 nM.

As for VAVSFVTLI, the Kd in the test with HLA-B*51:01 (setting [6]) is 431 nM.

For DYQGKTVWF, the Kd is 763 nM with HLA-A*24:02 [3] (setting [9]) and 805 nM in the test with HLA-A*23:01 (setting [9]).

On to SYTQMCDHRL, for which the Kd in the test with HLA-A*24:02 [3] (setting [11]) is 184 nM.

DIKPDNILL: the Kd with HLA-A*02:01 [4] is no less than 20000 nM.

Regarding EPETPNMDVI, the Kd with HLA-B*53:01 (setting [7]) was determined as 10800 nM.

By IC50 is commonly meant the concentration at which inhibition is half-maximal. Higher therefore signals lower potency. For orientation: Kd means a measure of binding affinity in units of concentration.
